Measured values as given in the DeepSol protein solubility set.

Test: soluble on expression in E. coli; label from the status in PepcDB or PDB records

Sequence | soluble on expression in E. coli
MLAHLEELKKNIEGDLYFDLTMRTLYATDASVYRELPLAVARPKHKQDVQKIIAFANKYKIGIIPRTAGTSLAGQVVGKGIIVDVSKYFTE | not soluble
EVQLQQSGAELVRPGASVKLSCTASGFNIKDDFMHWVKQRPEQGLEWIGRIDPANDNTKYAPKFQDKATIIADTSSNTAYLQLSSLTSEDTAVYYCARREVYSYYSPLDVWGAGTTVTVPSGS | soluble
MGSDKIHHHHHHMGQRIPVTLGNIAPLSLRPFQPGRIALVCEGGGQRGIFTAGVLDEFMRAQFNPFDLYLGTSAGAQNLSAFICNQPGYARKVIMRYTTKREFFDPLRFVRGGNLIDLDWLVEATASQMPLQMDTAARLFDSGKSFYMCACRQDDYAPNYFLPTKQNWLDVIRASSAIPGFYRSGVSLEGINYLDGGISDAIPVKEAARQGAKTLVVIRTVPSQMYYTPQWFKRMERWLGDSSLQPLVNLVQHHETSYRDIQQFIEKPPGKLRISEIYPPKPLHSIALGSRIPALREDYKLGRLCGRYFLATVGKLLTEKAPLTRHLVPVVTPESIVIPPAPVANDTLVAEVSDAPQANDPTFNNEDLA | not soluble
MGAQSHSLEITSSVSAEKIFSGIVLDVDTVIPKAATGAYKSVEVKGDGGAGTVRIITLPEGSPITTMTVRTDAVNKEALSYDSTVIDGDILLGFIESIETHMVVVPTADGGSITKTTAIFHTKGDAVVPEENIKFADAQNTALFKAIEAYLIAN | soluble
MLVVLAISLAVTAVCAQYGSGPANNPPASSYSSNVYYPPPVYGSVYWDYDSGSREHRHKQCPRLRAYVGEFPGIPEEAFYPPIIRYVKYNRKVTALVVCDRDEKNLNFLFARHNKTRDVRSASVVAIGSTAGVTLVCNRDDRRYEGFVIDMNATTNGFSKKIEITQLTCLGLDKTIIGLPVEHGVQQLAQKIQEILEDDFFVPVIPSRRKRQAGGATANSAESTTEAADTESTTEAAATETPAAESTTTEASATDAAATEASATDAAATEGAVTKAAAGVTEESATEVITVATTPASPDAALNNAINELGKILGQVF | not soluble
GMTNVGRPIETHAITVGQGSDARSIAALVRAPAQDERPTCIWLGGYRSDMTGTKALEMDDLAASLGVGAIRFDYSGHGASGGAFRDGTISRWLEEALAVLDHFKPEKAILVGSSMGGWIALRLIQELKARHDNPTQVSGMVLIAPAPDFTSDLIEPLLGDRERAELAENGYFEEVSEYSPEPNIFTRALMEDGRANRVMAGMIDTGCPVHILQGMADPDVPYQHALKLVEHLPADDVVLTLVRDGDHRLSRPQDIDRMRNAIRAMIEPRP | soluble
MSKNDHRITHNKSDKDNLDDDFSLFRDEVKGVKKLRQDTILHAPNRNPKQKEIRRTEREASDNDFYFSDEFMPHLTDEGPTRYARSDVSKYEVKRLRRGVYVPDVFLDMHGMTQQEAKRELGAMIAYCLKENVHCACVQHGIGKHILKQNVPLWLAQHPDVLAFHQAPLEFGGDGALLVLLSIPEK | not soluble
MGLELRAIQSPIFSEPFDFTFHAQAFTLLVGSSGSGKSSLFQMIAQVSSLPYSGQVLIDGSEVSQLSIVERVQTVGILLQNPNHQFTMESLFEELVFTMENIGYHLQEIDSKIAEVVQQCRCKDILHRLIHHLSGGEKQKAALAVLFAMNPRVYLLDEPFASIDRKSRIEILEILKELVYDGKTVILCDHDLSDYKAYIDHMVELRDGKLREVFQIPSYEMTQVASKEVASSPELFHMNRVTGELGNRPLFSIADFTFYQGISCILGDNGVGKSTLFRSILQFQKYKGSITWKGSVLKKKKSLYRDLTGVVQEAEKQFIRVSLREELQLDGPDSERNQRIFQALRYFDLEQAVDKSPYQLSGGQQKILQLLTILTSKASVILLDEPFAGLDDRACHYFCKWIVEERNQGRSFLLISHRLDPLISVVDYWIEMTSQGLRHVKEVTITKPLTSQSSNTQGEVR | not soluble
MEIFPAIDLKEGRCVRLYQGEFSKETVMNEDPVAQAIIFEKFGAKRLHIVDLDGAVAGESLNLSVIERICKAVRIPVQVGGGIRSLVAVEKLFSVGVDKVILGTAALYDKTFLEEAVLLYKEKIIVGIDAKNGFVATRGWLDVSEISYIDLAKQMEKIGVQTIVFTDISKDGTLAGPNIEQLELLQKSVAIRLIASGGVASIQDVKKLNDMNIYGVIIGKALYEKTIDLEEVVEVTKLC | not soluble
MGSSHHHHHHSSGRENLYFQGHMRILWILPYSPWPTTSGGKTRQYHLLRSLAARGHRITVLLHSKQPVSAEDRQALEPFLERLVVLPRRPLRSLSTLLAALFAPYPLLASVNGLSAELQRTATELLREPWDVVQVEHSYSFQPYERPLRDAGQPFVLTEHNVESSLGAATYDRLPGWALPFVRYDQWRYRRWERRVMSQAAAVVAVTEKDARQLGAMLGRPVPVVVNGVDCEHFATARPTPEAQRVLFLGNYEYAPNVDAVEWMLDEILPRVWAHCPEARMSVCGYALPAEWAQRWSDPRIEWQGFVPDLLQLQSSSSVFLAALRHGGGSKLKVLEALAAGLPLASTAQGVSGLELRDGEDYLGGESAEQLANAVVRLLQDPAQARALGENGRAYVRRAHDWSVAASQLEQVYAGLAEGAPACA | soluble
MGVSLSKGGNVSLTKEAPGLTAVIVGLGWDIRTTTGTDFDLDASALLLNSGGKVASDAHFIFFNNLKSPDGSVEHTGDNITGEGEGDDEQIKINLATVPADIEKIVFPVSIYDAENRQQSFGQVRNAFIRVVNQAGEAEIARYDLSEDASTETAMVFGELYRHGAEWKFRAIGQGYASGLRGIAQDFGVNV | soluble
MGSDKIHHHHHHMVMIQLCEWQQQGQFLSINDQQIFTRQAGDRKAPALLLIHGYPSASWDWEGMWHELTQHYFVVTLDMLGFGFSDKPKNVDYLISQQADIYEAVLQQFGVSHYHILAHDYGDTVAQELLARQLDGNSTLSINSVCFLNGGLFPETHKPLLIQTLLLSPLGPLVSKLINKQKFAVNLQRIFGPSTPPTPQVIDALWQLLNHNNGLAVMHKLINYITQRKQHRERWVGAIINSTIPIKLIAGVKDPISGQHMIDHYRKLIPHADVTELPTLGHYPQVEDANAIIAAYLQFRLNRT | not soluble
MGSDKIHHHHHHMMDFDFLEGKRLTEDVALDETMVWNEDIEMLDLHLVATSALIGVVHRVSYELLSRYLPNDYTAVVVETLARHVKAVPTGTRVAVGVRVVGVVGNRVKFRGIVMSGDEKILEAEFVRAIVPREKLRRLALEKAEKTSRLFGI | soluble
MSGWNAYIDTMTAAAPSIKRCAIVGAADGSVWARTEADNVFKASEEELKTFVALFNDVTQVPAKGADIEGVHYVVPRTEESLIFGKKENTGFFAVKTKSAVLIAVYEGPNEVAAQVRKAVESMQTYLNNAGY | not soluble
MAHHHHHHMTKVWMPWAYQALLAYAHSGAAHGQANLWLKGQTSTPLQRICDPVPNLLISQSSQGGQRALWLLHRPESVLGLVVSPQWQGESGDHELCDASVVSKRKIVRVMKHLHSLPFRVAGSSPLRPPMVVHKNHLVGWRIDGKAAPLYAHTLDQLAKLKPTQFKTIEPKNAFICRTYYEWDNWKEVSMEPGWTWHHVDEEIANNILDGTLTFDGLRATATDTP | not soluble
MGSDKIHHHHHHMVRFISNTLSQTLNEPFQQSHKSCKHLYILEILSQVVIVSDQKQVPLQPYDIILAQSFNHLQIDSLDRNPILLRLYSLDFDLPSPLNQYTVGDNPLIHDLMNDHTSEDAYILFTNLSDLICHAYLDALEKLENLRDNNDEQVYIDFQRQKLAGLLFTELLRQHDAKVSKFASRFPSVNVKYASKDSQSGAIMKYVSDNVHHISLKEAAAHFFYQANYFSRLCHELFGISFNQLKTTIRLEIAKEQLRLTTKSVEEISQELGYKAVSNFHRNFKSQTGMTPNDYRQDKQ | not soluble
MTKKQKEILFCDYFEEWVEVYKVGAIAKITLAKYYNAAKQLRDLCPKLFISDFDRREYQRIINVYAETHEKQTVKDFHHHVKACIKDLFHDGLIDKDPTYRVVIKGAELEHHHHHH | soluble
MTCEGRRTMTQPISLGHRMSLIDLYDLRMPQRTGTYVLHEENLAIIETGPSPSVPHLLAGLKALHIDPADIRYIIVTHIHLDHAGGVGVLLEHCPNATVIVHPKGKRHLADPSRLIAGAKAVYGEQFDALFDPIVPVPEERLLVKEDGETLVLSAERTLTFYDTPGHANHHFSIYDSYSGGVFTGDTIGVFYPQLQEAGLAFCLPSTSPNQFNPEAMKQSAERLEKLNPTRIYFGHFGALDQPEEAFRQLRFWLPKFVAAGKEVIARHPEAPAAEQAKAVTKLLHNDITAFLNECSIPASSPVYKVIELDLQVCAMGIIDYWRKQRLEHHHHHH | soluble
